Test [1] addresses T1, recombinant His-tagged human FRα (ACROBiosystems) (human, UniProt P15328 25-233).
T1 construct: also called hFRα; hFRα antigen; not shown: His tag
Put plainly: BLI (Octet RED96): antibody loaded on anti-human IgG Fc capture biosensors, His-tagged hFRα in solution. Six traces with fit lines plateau between about 0.17 and 0.5 nm during 0-400 s association and decay almost to baseline by 900 s. The legend prints the same globally fitted KD for all six traces (single run; the text prints only the mean of n=2). The procedure: The assay buffer used was KB buffer (kinetics buffer, composed of PBS pH 7.4, 0.1% BSA, 0.02% Tween 20, 0.05% sodium azide) supplemented with 0.06% Tween 20 and in some instances also with 1% BSA. The experiment was conducted at 30° C. with a shake speed of 1000 rpm.
Data analysis was performed using Data Analysis Software 9.0 (ForteBio, Fremont CA). The reference-subtracted binding curves were globally fitted to the 1:1 interaction model to generate the binding kinetic parameters kₒₙ, koff, and the dissociation constant KD.

The target of test [2] is T1, recombinant His-tagged human FRα …. Put plainly: BLI (Octet RED96): antibody on anti-human IgG Fc capture biosensor, His-tagged hFRα as analyte, 1:1 global fit, mean of n=2. The method, boiled down:
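Run at 30° C with 1000 rpm shaking in kinetics buffer (PBS pH 7.4, 0.1% BSA, 0.02% Tween 20, 0.05% sodium azide) plus 0.06% Tween 20, sometimes 1% BSA. Reference-subtracted curves globally fitted to a 1:1 model, giving kon, koff and KD.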

The target is the same in test [3]. Put plainly: SPR (Biacore T200): hFRα amine-coupled to CM5 chip at high antigen density, bivalent FSA injected, 1:1 Langmuir fit, mean of n=2. Here is the method:
(§1) CM5 Series S sensor chip, Biacore™ amine coupling kit (NHS, EDC and 1 M ethanolamine), and 10 mM sodium acetate buffers were purchased from GE Healthcare Life Science (Mississauga, ON, Canada). PBS running buffer with 0.05% Tween20 (PBST) was purchased from Teknova Inc. (Hollister, CA). Recombinant human FRα was purchased from ACRObiosystems (Newark, DE).
(§2) Screening of the variants for binding to hFRα antigen was conducted in two steps: capture of hFRα onto surface, followed by injection of three to five concentrations of variant. The hFRα surface was prepared on a CM5 Series S sensor chip by standard amine coupling methods as described by the manufacturer (GE Healthcare Life Science, Mississauga, ON, Canada). The immobilization of the hFRα was performed using Biacore™ T200 immobilization wizard with an amine coupling method aiming for resonance units (RUs) ranging from 5 to 200 RUs. Using multi-cycle kinetics, three to five concentrations of a two-fold dilution series of samples starting at 300 nM with a blank buffer control were injected at 50 uL/min for 180s with a 600s dissociation phase, resulting in a set of sensorgrams with a buffer blank reference. The hFRα surface was regenerated to prepare for the next injection cycle by one pulse of 10 mM glycine/HCl pH 1.5 for 30s at 30 uL/min. Blank-subtracted sensorgrams were analyzed using Biacore™ T200 Evaluation Software v3.0. The blank-subtracted sensorgrams were then fit to the 1:1 Langmuir binding model.
In general terms: In SPR one partner is held on a chip, and binding of the other changes the refractive index at the surface.

In test [4] the target is T2, FOLR3, commercial purified protein (R&D Systems Cat. No. 5319-FR) (human, UniProt P41439 23-245, limits assumed).
T2 construct: Coated on the ELISA plate; also called folate receptor gamma (FOLR3)
T2 sequence (P41439 23-245 limits assumed): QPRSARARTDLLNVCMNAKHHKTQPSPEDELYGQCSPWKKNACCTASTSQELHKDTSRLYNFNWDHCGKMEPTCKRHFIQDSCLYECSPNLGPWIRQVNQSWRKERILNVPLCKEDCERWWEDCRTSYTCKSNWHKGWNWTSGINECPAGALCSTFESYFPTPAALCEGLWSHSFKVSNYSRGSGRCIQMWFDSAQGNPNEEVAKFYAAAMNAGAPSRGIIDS
The experiment in a line: ELISA on coated FOLR3 protein. Here is the method: FOLR3 binding: ELISA 96-well plate was coated with commercial purified FOLR3 protein (R&D Systems, Inc., Minneapolis, MN; Cat. No. 5319-FR) for 1 hr at 37° C. The plate was blocked with 1% milk in PBS pH 7.4 for 1 hr at RT. Following blocking, primary antibodies were added at 7 nM for 1 hr at RT. […] Plates were developed using tetramethylbenzidine (TMB) and HCl was used to stop reaction. Absorbance was read at 450 nm using a Synergy™ H1 microplate reader (BioTek Instruments, Winooski, VT).
(In general: In an ELISA, binding on a coated surface is turned into a signal by an enzyme label.)

For test [5], the target named is T1, recombinant His-tagged human FRα …. Put plainly: SPR (Biacore T200): hFRα amine-coupled to CM5 chip at medium-low antigen density, bivalent FSA injected, 1:1 Langmuir fit, mean of n=2. Here is the method:
as §1, §2

Another test deals with T3, FOLR4 on HEK293-6e cells (human, UniProt A6ND01 20-228).
T3 construct: whole, on cells; also called human folate receptor delta (FOLR4)
T3 sequence (A6ND01 20-228): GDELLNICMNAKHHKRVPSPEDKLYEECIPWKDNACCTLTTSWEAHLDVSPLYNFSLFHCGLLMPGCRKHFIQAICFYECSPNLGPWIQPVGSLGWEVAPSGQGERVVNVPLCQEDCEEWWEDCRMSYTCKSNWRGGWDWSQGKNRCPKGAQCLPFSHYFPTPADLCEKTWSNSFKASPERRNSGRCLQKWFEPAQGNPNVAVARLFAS
The experiment in a line: flow cytometry on transfected HEK293-6e cells. The procedure:
FRα, FOLR2 and FOLR4 binding was assessed through flow cytometry using HEK293 transfected cells. FOLR3 binding was assessed through ELISA as FOLR3 is a soluble protein. Control anti-FOLR2 (mouse anti-human FOLR2; Nordic BioSite AB, Taby, Sweden; Cat. No. AFC-4544-2), anti-FOLR3 (mouse anti-human FOLR3; LS Bio, Seattle, WA; Cat. No. LS-C125621) and anti-FOLR4 (mouse anti-His DyLight™ 650; Novus Biologicals, Littleton, CO; Cat. No. NBP2-31055C) antibodies were included in these experiments.
FRα, FOLR2 and FOLR4 binding: Briefly, HEK293-6e cells were transfected for ˜24 hours to transiently express human FRα (Cat. No. 13420), FOLR2 (Cat. No. 13481) and FOLR4 (Cat. No. 13483) (all from GenScript Biotech, Piscataway, NJ), 1 ug DNA per 1 million cells. Following transfection, 50,000 cells were seeded in V-bottom 96-well plates and incubated with 50 nM primary antibody for 45 min under standard culturing conditions. […] Following incubation and washing, fluorescence was detected by flow cytometry on a BD LSRFortessa™ Cell Analyzer (BD Biosciences, Franklin Lake, NJ) with 1,000 minimum events collected per well.
On the technique in general: Flow cytometry measures light scatter and fluorescence of single cells or particles in a stream.

Test [6] deals with T4, human FRα on cells (human, UniProt P15328 25-234).
T4 construct: Transiently expressed on HEK293-6e, CHO-S or HEK293 microarray cells, or endogenous on JEG-3, HEC-1-A, IGROV-1, OVCAR-3, H2110, KB-HeLa and T-47D cells; also called human folate receptor alpha; FOLR1
T4 sequence (P15328 25-234 limits assumed): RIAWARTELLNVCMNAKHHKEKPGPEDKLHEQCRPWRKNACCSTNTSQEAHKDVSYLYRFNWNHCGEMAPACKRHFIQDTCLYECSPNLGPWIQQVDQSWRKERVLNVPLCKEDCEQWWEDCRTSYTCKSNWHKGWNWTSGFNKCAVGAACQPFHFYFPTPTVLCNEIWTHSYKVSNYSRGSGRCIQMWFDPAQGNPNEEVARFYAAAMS
The experiment in a line: apparent Kd, flow cytometry, CHO-S cells transiently expressing human FRα (same experiment as Table 15.1, more digits). The procedure: (§3) Briefly, CHO-S cells were transfected for −24 hours to transiently express human or cynomolgus monkey FRα, 1 ug DNA per 1 million cells. Following transfection, cells were seeded at 50,000 cells/well in V-bottom 96-well plates and treated with antibody for 24 hours at 4° C. to prevent internalization. […] Following incubation and washing, fluorescence was detected by flow cytometry on a BD LSRFortessa™ Cell Analyzer (BD Biosciences, Franklin Lake, NJ).

Test [7] concerns the target T4, human FRα on cells. The experiment in a line: apparent Kd, flow cytometry, CHO-S cells transiently expressing human FRα, 24 h at 4°C. Here is the method:
as §3

This is an account of results in patent US20240424125A1 (Zymeworks, published 2024).

T1 sequence (P15328 25-233 limits assumed): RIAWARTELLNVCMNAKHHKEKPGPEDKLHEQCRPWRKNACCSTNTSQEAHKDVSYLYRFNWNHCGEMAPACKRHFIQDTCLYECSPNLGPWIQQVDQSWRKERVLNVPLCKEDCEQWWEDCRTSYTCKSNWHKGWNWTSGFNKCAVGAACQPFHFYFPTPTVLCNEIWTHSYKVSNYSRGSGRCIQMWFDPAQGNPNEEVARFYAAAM

B1: v23924 (antibody, human IgG1, kappa, V domains shown)
VH: QSVKESEGGLFKPTDTLTLTCTVSGFSLSSYGVSWVRQAPGNGLEWIGAVNSGGSAYYANWAKSRSTITRNTNLFTVTLKMTSLAVADTATYFCARSGSGYPMDYLAIWGPGTLVTVSS
VL: AYDMTQTPASVEVAVGGTVTIKCQASQSIGDWLAWYQQKPGQPPRLLIYEASTLASGVPSRFSGSGSGTQFTLTISGVECADAATYYCQQGYGRSNVDNIFGGGTEVVVKR
notes: Rabbit-human chimeric full-size antibody, human IgG1/kappa, HomoFc; also called variant v23924; parental chimeric anti-FRα antibody
As for B1, the Kd turned out to be 20.6 nM in test [1]; 27 nM in test [2]; 0.278 nM in test [3]; 2.29 nM in test [5]; 0.0839 nM with human FRα on cells [6]; 0.08 nM in the test with human FRα on cells [7]. In addition, the binding result in test [4] was “no binding (tested: 7 nM)”; with FOLR4 on HEK293-6e cells, “no binding (tested: 50 nM)”.
